± gives the half width of the 95% confidence interval.
Legend:
[1] = folding stability dG unfold from trypsin proteolysis; higher = more stable
How it was run: (§1)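 Bayesian fitting of sequencing counts gave K50 for each design. Unfolding free energy followed by setting this against a sequence-predicted unfolded-state K50 and a shared folded-state K50, either per protease or with trypsin and chymotrypsin combined. The designs, under 80 residues and lacking cysteine, were digested in a PA-tagged cDNA display format at 11 threefold-diluted protease concentrations and without protease, and only those with AlphaFold2 dimer inter-PAE above 15 were kept.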

[2] = folding stability dG unfold from chymotrypsin proteolysis; higher = more stable
How it was run: as §1

[3] = folding stability dG unfold (combined trypsin and chymotrypsin); higher = more stable
How it was run: as §1

In the case of “SAGGSAGGSAGGPPYEVNIYIKFRPPDGKPPTFPIDVNVNDPEDAKDELEDNFPNMEIVSAGGSAGGSAGGS [r10_1248_TrROS]”, the “folding stability dG unfold” value [1] is reported as 0.592 ± 0.051 kcal/mol, the “folding stability dG unfold” value [2] is reported as 0.996 ± 0.15 kcal/mol and the “folding stability dG unfold” value [3] is reported as 0.919 ± 0.23 kcal/mol.

For “SAGGSAGGSAGMKPNEPDLVLLTTTVTLTTTETTTDEDGNTYTTTTTTTLTTTTLLPRGTSAGGSAGGSAGG [r17_523_TrROS_Hall]”, the “folding stability dG unfold” value [1] was 2.77 ± 0.17 kcal/mol, the “folding stability dG unfold” value [2] was 3.94 ± 0.087 kcal/mol and the “folding stability dG unfold” value [3] was 3.63 ± 0.1 kcal/mol.

For “SAGGSAGGSAGGMVETGTPSSGSSSPSYVLTTTTLTLLDGTFVPTTTTTTFSDPAEAAAASAGGSAGGSAGG [r7_896_JUSTAS]”, the “folding stability dG unfold” value [1] was 1.52 ± 0.082 kcal/mol, the “folding stability dG unfold” value [2] was 0.411 ± 0.077 kcal/mol and the “folding stability dG unfold” value [3] was 1.14 ± 0.086 kcal/mol.

With “SAGGSAGGSAGPPNVKLTFTIMIMEMKMEPPPDGNPKMEMVMVPIEIEITAPPGDEITAISAGGSAGGSAGG [r11_174_TrROS]” the “folding stability dG unfold” value [1] was 2.41 ± 0.2 kcal/mol, the “folding stability dG unfold” value [2] was 4 ± 0.44 kcal/mol and the “folding stability dG unfold” value [3] was 2.93 ± 0.39 kcal/mol.

With “SAGGSAGGSGGMMPVTLTITPVNPPGASTSSTTIPVNFTSPEEAAAAKEKIAAELPSNATVTGSAGGSAGGS [r20_211_JUSTAS]” the “folding stability dG unfold” value [1] was 0.442 ± 0.0095 kcal/mol, the “folding stability dG unfold” value [2] was -1.1 ± 0.4 kcal/mol and the “folding stability dG unfold” value [3] was 0.0375 ± 0.072 kcal/mol.

With “SAGGKEIKIEVELDEDGNLTVTITLPDGRVVRITFTPGKITVEVFDAETGELVEEKTLTADELLELLSAGGS [r8_476_TrROS_Hall]” the “folding stability dG unfold” value [1] was 3.46 ± 0.16 kcal/mol, the “folding stability dG unfold” value [2] was 3.81 ± 0.13 kcal/mol and the “folding stability dG unfold” value [3] was 3.67 ± 0.13 kcal/mol.

In the case of “SAGGKPVRILVIAGKGIRPLEIPVDEDKTVEAEFKFGDHTIRIRVSPKEKKIEVEAPSNFKIIILEPSAGGS [r16_761_TrMRF]”, the “folding stability dG unfold” value [1] is reported as 2.96 ± 0.092 kcal/mol, the “folding stability dG unfold” value [2] is reported as 3.14 ± 0.042 kcal/mol and the “folding stability dG unfold” value [3] is reported as 2.98 ± 0.12 kcal/mol.

With “SAGGSAGGSAGDPKKKPPKPILGFELAEFEITTEDGTKYKVKALIIYFPDTGTKVIFVLGSAGGSAGGSAGG [r11_1024_TrMRF]” the “folding stability dG unfold” value [1] was 2.78 ± 0.13 kcal/mol, the “folding stability dG unfold” value [2] was 4.73 ± 0.13 kcal/mol and the “folding stability dG unfold” value [3] was 4.33 ± 0.18 kcal/mol.

With “SAGGKSIHIADATLEDLVDLIANLPEPVVIHVERPVTFPVLLLENGVVAAVRTETAPATLTLTIPPELSAGG [r13_632_TrMRF]” the “folding stability dG unfold” value [1] was 0.408 ± 0.021 kcal/mol, the “folding stability dG unfold” value [2] was 0.258 ± 0.087 kcal/mol and the “folding stability dG unfold” value [3] was 0.389 ± 0.05 kcal/mol.

For “SAGGGHMMPNITVDVEEEVFTLPDGSILTRTTVTVTLPNGKKTTVETEYFYDTKTGTVSSKVVKVEASAGGS [r16_166_JUSTAS]”, the “folding stability dG unfold” value [1] was 2.72 ± 0.11 kcal/mol, the “folding stability dG unfold” value [2] was 3.45 ± 0.082 kcal/mol and the “folding stability dG unfold” value [3] was 3.17 ± 0.1 kcal/mol.

In the case of “SAGGGPPSSMVKKTYTVTGTDPDALAAAVRAAIAAAHPDVEITEVTVSRDPSSDRYTVTVDVLSSVASAGGS [r8_120_JUSTAS]”, the “folding stability dG unfold” value [1] is reported as 2.22 ± 0.036 kcal/mol, the “folding stability dG unfold” value [2] is reported as 2.638 ± 0.017 kcal/mol and the “folding stability dG unfold” value [3] is reported as 2.51 ± 0.051 kcal/mol.

In the case of “SDYYIINIKIEVYYDGKPVREIPIFILVPPEQALMIAETIAEMLPGYKVKIKINVYRIPEDDPELREAFGSA [r9_782_TrROS]”, the “folding stability dG unfold” value [1] is reported as 2.31 ± 0.077 kcal/mol, the “folding stability dG unfold” value [2] is reported as 3.26 ± 0.044 kcal/mol and the “folding stability dG unfold” value [3] is reported as 2.93 ± 0.18 kcal/mol.

In the case of “SAGGSAGGMKVIEIDLPDGSKLKIVIYKDGTLPAYLPEGNKVIVLEIDKNGKIKSVKVFDAKDISAGGSAGG [r6_81_TrMRF]”, the “folding stability dG unfold” value [1] is reported as 2.87 ± 0.16 kcal/mol, the “folding stability dG unfold” value [2] is reported as 3.52 ± 0.072 kcal/mol and the “folding stability dG unfold” value [3] is reported as 3.21 ± 0.25 kcal/mol.

In the case of “SANIQIMIEDWDPERGWIRISIQVDKGDPDKPITPELVNNIRELFRFRGIEVNIEVHPDGMVNIEIPIPSAG [r14_865_TrROS]”, the “folding stability dG unfold” value [1] is reported as 3.39 ± 0.069 kcal/mol, the “folding stability dG unfold” value [2] is reported as 4.59 ± 0.051 kcal/mol and the “folding stability dG unfold” value [3] is reported as 4.14 ± 0.094 kcal/mol.

For “SAGPDLPFDVRLVEVRDMEVRVTPDGRLVVTLPMVGRHPSGFLVRRTIRFEPETDRVEATGEVRPLDESAGG [r19_320_TrMRF]”, the “folding stability dG unfold” value [1] was 0.581 ± 0.062 kcal/mol, the “folding stability dG unfold” value [2] was 0.804 ± 0.087 kcal/mol and the “folding stability dG unfold” value [3] was 0.774 ± 0.059 kcal/mol.

With “SAGGSAPPPKWIMFKIEATMPPNDLDNVVEELLKILFGFKIKNIEVEWEQVKDGYYKVPVWVMIRFSAGGSA [r15_138_TrROS]” the “folding stability dG unfold” value [1] was 3.01 ± 0.41 kcal/mol, the “folding stability dG unfold” value [2] was 4.05 ± 0.093 kcal/mol and the “folding stability dG unfold” value [3] was 4.12 ± 0.4 kcal/mol.

For “SAGGSAGGSAEWKPITYWVPPGQSIKEIADDLMDKNPRITDAEMEYDPDGYMKVTLTVRLDSAGGSAGGSAG [r3_371_TrROS]”, the “folding stability dG unfold” value [1] was 0.493 ± 0.056 kcal/mol, the “folding stability dG unfold” value [2] was 0.505 ± 0.14 kcal/mol and the “folding stability dG unfold” value [3] was 0.552 ± 0.086 kcal/mol.

For “SAGGGSTSTSTSTSTDPATGATTTTTTTTVPTPDGSGTVTTTTTTVPGAAPDTDTAPVTTTTTTTPTPSAGG [r13_715_JUSTAS]”, the “folding stability dG unfold” value [1] was 2.49 ± 0.1 kcal/mol, the “folding stability dG unfold” value [2] was 2.14 ± 0.086 kcal/mol and the “folding stability dG unfold” value [3] was 2.32 ± 0.21 kcal/mol.

For “SAGPEVVVFKGIEVEVTEVPPELLENLPPDVIAIPFGDRVLLIRVREYDVARFPPIPPLGANPETGELSSAG [r14_126_TrMRF]”, the “folding stability dG unfold” value [1] was 2.17 ± 0.12 kcal/mol, the “folding stability dG unfold” value [2] was 2.61 ± 0.11 kcal/mol and the “folding stability dG unfold” value [3] was 2.44 ± 0.3 kcal/mol.

In the case of “SMLEEVLERIEAMPPGSVVKVTLTFPDGTKRTETLKLSAEEVKEKLEKIKKENPDIKIEVKVEVYSTEEESA [r9_37_JUSTAS]”, the “folding stability dG unfold” value [1] is reported as 3.33 ± 0.39 kcal/mol, the “folding stability dG unfold” value [2] is reported as 4.05 ± 0.36 kcal/mol and the “folding stability dG unfold” value [3] is reported as 4.39 ± 0.42 kcal/mol.

For “SGFEVERVEVEADLDKPTVARFLLVNPDGQPIVALDPVVRLGEEALVLSVYRNPVDGELRVTARRIRLDGSA [r9_269_TrMRF]”, the “folding stability dG unfold” value [1] was 1.1 ± 0.068 kcal/mol, the “folding stability dG unfold” value [2] was 1.24 ± 0.11 kcal/mol and the “folding stability dG unfold” value [3] was 1.21 ± 0.043 kcal/mol.

— the supplement of paper PMC12764529
